# Measurements from patent US11229713B2, “Methods and compositions for 18F-radiolabeling of biologics” (BRISTOL-MYERS SQUIBB COMPANY, priority 2014, dated 2022).
# Legend:
# [1] = Stability of reconstituted [18F]-FPPEGA in 1×PBS buffer; assay type: physicochemical; details: 100% 1×PBS buffer, 37° C.
# Experimental: An aqueous [^18F]-Fluoride solution (2.0 ml, 33.3 GBq/900 mCi) was purchased from P.E.T. Net® Pharmaceuticals in West Point Pa. and directly transferred to a Sep-Pak light QMA [The Sep-Pak light QMA cartridge was pre-conditioned sequentially with 5 ml of 0.5 M potassium bicarbonate, 5 ml of deionized water, and 5 ml of MeCN before use.] Upon completion of this transfer, the aqueous [^18F] fluoride was released from the QMA Sep-Pak by the sequential addition of potassium carbonate (15 mg/ml; 0.1 ml) followed by a mixture of potassium carbonate (30 mg/ml, 0.1 ml), 4,7,13,16,21,24-hexaoxa-1,10-diazabicyclo[8.8.8]hexacosane (15 mg, 0.04 mmol) and 1.2 ml of MeCN. The solvent was evaporated under a gentle stream of nitrogen at 90° C. and vacuum. Azeotropic drying was repeated twice with 1 ml portions of acetonitrile to generate the anhydrous K.2.2.2/K[^18F]F complex. […] The entire contents of the crude reaction mixture was then transferred, loaded and purified using reverse phase HPLC and the following conditions: HPLC Column: Luna C18 250×10 Solvent A: 0.1% TFA in DI water; solvent B: 0.1% TFA in acetonitrile at a flow rate of 4.6 ml/minute using isocratic method 32% B while the UV was monitored at 280 nm. […]
# PD-L1 [2] = target: T1, PD-L1 (Homo sapiens, UniProt Q9NZQ7); assay: microPET imaging of mice bearing bilateral PD-L1(+) L2987 and PD-L1(−) HT-29 xenografts; assay type: in vivo; set-up: introducing 1×10^6 PD-L1(+) L2987 human lung carcinoma cells; endogenous in cells; host or cells: L2987 human lung carcinoma xenografts grown subcutaneously in mice; details: co-injected with 3 mg/kg unlabeled A02 Adnectin, 1 hour 50 minutes - 2 h post injection
# From the text: Mice bearing bilateral xenograft tumors were produced by introducing 1×10^6 PD-L1(+) L2987 human lung carcinoma cells and 1.5×10^6 PD-L1(−) HT-29 human colon carcinoma cells subcutaneously on opposite sides of the mouse. Once tumors reached approximately 300 mm^3 (approximately 2-3 weeks after cell implantation) animals were selected for imaging. For imaging, animals were placed under anesthesia with 2% isoflurane and tail vein catheters were installed. Mice were then placed into a custom animal holder with capacity for 4 animals, where they remained under anesthesia for the duration of the study. The animal holder was transferred to the microPET® F120™ scanner (Siemens Preclinical Solutions, Knoxville, Tenn.). […]
# Following the transmission scan, radiotracer solutions were administered via the previously installed tail vein catheters and a 2 hour emission image was acquired. […] Exact injected doses were calculated by taking direct measurement of the formulated dose and subtracting the radioactivity remaining in the syringe and the tail vein catheter.
# In the final images, regions of interest (ROIs) were drawn around the tumor boundary using ASIPro software (Siemens Preclinical Solutions). Time-activity curves were calculated for each ROI to yield a quantitative view of radiotracer within the tumor volume over the course of the 2 hour emission image. […]
# PD-L1 [3] = target: T1, PD-L1; assay: Ex vivo tissue biodistribution by gamma counter in xenograft-bearing mice; set-up: introducing 1×10^6 PD-L1(+) L2987 human lung carcinoma cells; endogenous in cells; host or cells: L2987 human lung carcinoma xenografts grown subcutaneously in mice
# Experimental: For some studies, animals were sacrificed via cervical dislocation immediately following imaging. Necropsy was then performed on the animals, and individual tissues were collected (blood, heart, lung, liver, spleen, kidney, muscle, stomach, bone, L2987 tumor, and HT-29 tumor) into pre-weighed tubes. All tissues were then weighed again to determine the weight of each tissue. The radioactivity in each tissue was then directly measured ex vivo using a Perkin-Elmer Wizard3 gamma counter. For all tissues, measured values in counts per minute (CPM) were normalized to the injected radioactive dose for the individual animals and corrected for radioactive decay.
# PD-L1 [4] = details: cynomolgus monkeys
# Experimental: Cynomolgus male monkeys with a previously installed vascular access port (VAP) were anesthetized with 0.02 mg/kg atropine, 5 mg/kg Telazol and 0.01 mg/kg buprenorphine I.M. (all drawn into a single syringe). An i.v. catheter is then placed in the cephalic vessel for fluid administration during the imaging procedure to maintain hydration. […] Anesthesia was maintained with isoflurane and oxygen and I.V. fluids (LRS) were administered at a rate of 6 ml/kg/hr during the imaging procedure. As the axial field of view of the microPET® F220™ instrument is only 7.6 cm, images over 5 distinct bed positions were acquired to create a composite image of the animals from just above the heart through approximately the pelvis.
# For each field of view, a 10 minute transmission image was first acquired using a ^57Co point source for the purpose of attenuation correction of the final PET images. […] Once images were acquired at each position (1 through 5), the imaging bed was moved back to bed position 1 and the process was repeated. Using this procedure, a total of 5 distinct images were acquired for each bed position over the duration of the imaging study.
# Individual images were reconstructed using a filtered back projection (FBP) algorithm with attenuation correction using the collected transmission images and corrected for radioisotope decay.
# PD-L1 [5] = target: T1, PD-L1; assay: In vitro differentiation of PD-L1-positive from PD-L1-negative cells (cell-associated radioactivity, gamma counter); assay type: binding; set-up: PD-L1-positive L2987 human lung carcinoma cells or PD-L1-negative HT-29 human colorectal adenocarcinoma cells; endogenous in cells; host or cells: L2987 human lung carcinoma cells (HT-29 as PD-L1-negative control); details: 1 hour on ice
# Experimental: Portions of this solution were supplemented with either cold (unlabeled) […] or cold (unlabeled) […] (control) to a final concentration of 450 nM. […] After the incubation period, cell samples were centrifuged at 200×g and the supernatant was discarded. Cell pellets were resuspended in 1 mL PBS+0.5% BSA and the wash procedure repeated for a total of 3 washes. Following the final wash, cells were again centrifuged at 200×g and the supernatant was discarded. The radioactivity of the remaining cell pellets was then measured by gamma counter.
# T1 sequence (Q9NZQ7 19-290): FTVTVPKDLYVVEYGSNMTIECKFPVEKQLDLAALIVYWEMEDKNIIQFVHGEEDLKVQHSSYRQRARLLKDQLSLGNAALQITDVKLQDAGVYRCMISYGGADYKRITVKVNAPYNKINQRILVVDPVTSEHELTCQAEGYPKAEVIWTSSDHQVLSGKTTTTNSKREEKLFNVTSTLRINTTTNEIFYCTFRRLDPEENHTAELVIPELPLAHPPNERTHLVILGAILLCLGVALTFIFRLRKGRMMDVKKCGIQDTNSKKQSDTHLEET
molecule,measurement,setting,value
[N-]=[N+]=NCCOCCOCCOCCOc1cccnc1[18F] [[^18F]-3-(2-(2-(2-(2-azidoethoxy)ethoxy)ethoxy)ethoxy)-2-fluoropyridine],stable in this media,[1],over 1 hour
"^18F-radiolabeled A02: ^18F-radiolabeled PD-L1 Adnectin A02 (SEQ ID NO: 2) produced as described in Example 9 (conjugate, PEG4-DBCO linker, 18F-FPPEGA label; Synthetic 18F-radiolabeled PD-L1 Adnectin, A02) EVVAATPTSLLISWSYDGPIDRYYRITYGETGGNSPVQEFTVPPDQKTATISGLKPGVDYTITVYAVRLEEAHYNREFPISINYRTPC","radiotracer uptake in PD-L1(+) L2987 xenografts relative to PD-L1(−) HT-29 xenografts, blocked",PD-L1 [2],1.04 ×
same,tissue with higher uptake than the PD-L1(+) tumor,PD-L1 [3]; ex vivo gamma counter,kidney
same,"uptake in PD-L1(+) L2987 xenografts compared to PD-L1(−) HT-29 xenografts, ex vivo","PD-L1 [3]; necropsy immediately after imaging, gamma counter",clear differential uptake
"^18F-radiolabeled E01-4PEG-DBCO: E01 anti-PD-L1 Adnectin (SEQ ID NO: 1) linked via maleimide-PEG4-DBCO to [18F]-FPPEGA by click reaction (conjugate, maleimide-PEG4-DBCO, 18F-FPPEGA label; Synthetic FBS protein, E01 Adnectin containing the C-terminal amino acids PC) GVSDVPRDLEVVAATPTSLLISWRAQLSPSFYYRITYGETGGNSPVQEFTVPNDVMTATISGLKPGVDYTITVYAVTTHGVYFYSPISINYRTPC",notable radiotracer accumulation (tissues),PD-L1 [4]; PET,"mainly in the kidneys, spleen, and bladder"
same,background levels / background accumulation in PET images,PD-L1 [4]; approx. 1.5 mCi (approx. 0.015 mg/kg) via VAP,very low
same,cell associated radioactivity in PD-L1-positive L2987 cells relative to PD-L1-negative HT-29 cells,PD-L1 [5]; 300 nCi/200 μL tracer,44.6 ×
"E01 Adnectin: FBS protein, anti-PD-L1 Adnectin, SEQ ID NO: 1, cold (unlabeled) (protein, Synthetic FBS protein, E01 Adnectin containing the C-terminal amino acids PC) GVSDVPRDLEVVAATPTSLLISWRAQLSPSFYYRITYGETGGNSPVQEFTVPNDVMTATISGLKPGVDYTITVYAVTTHGVYFYSPISINYRTPC",reduction in cell-associated ^18F-radiolabeled E01-4PEG-DBCO on co-incubation with cold adnectin,PD-L1 [5]; 450 nM cold (unlabeled) adnectin,99.6%
